The source of these data is paper doi:10.1101/2021.09.13.460021.

Experiment [1] concerns the target biotinylated histone H3K9me3 peptide. Put plainly: pull-down + far-Western, overlay or dot blot.
For experiment [2], the target named is biotinylated unmodified histone H3 peptide. Description: pull-down + far-Western, overlay or dot blot.

B1: GST tagged recombinant chromodomain (PfCD) of the chromodomain-containing protein PfCDP, wild type (domain or fragment)
chain: NEVFEVEKIIMARYKLNCKRKKNRKDENLDDFEFYIKWKNYDSDENTWEPFENLSPNLKGQARKVAL
One may read the Kd as a measure of binding affinity in units of concentration. With B1, the dissociation constant (Kd) in experiment [1] is 38 nM; in experiment [2] it was 175 nM.
